{"source": "the nanobody polyreactivity screen of Harvey et al. (2022)"}
{"experiment": "yeast display, Sf9 membrane polyspecificity reagent, FACS + sequencing; frameworks hold sequencing errors", "procedure,_shortened": "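A nanobody's polyreactivity label depends on the gate it was sorted from. Yeast display cells were stained with 10% biotinylated, detergent-solubilized Sf9 membrane reagent for 1 hour at 4 °C, enriched on streptavidin microbeads and sorted by FACS. The low and high (top ~1%) gates were set on anti-HA fluorescence for expression and streptavidin fluorescence for reagent binding.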"}
{"sequence": "QVQLVESGGGLVQAGGSLRLSCAASGSTFGWYTMGWYRQAPGKERELVATISYGGGITNYADSVKGRFTISRDNAKNTVYLQMNSLKPEDTAVYYCAARGDGVTNPFGYWGQGTQVTVSS", "polyreactivity (PSR sort gate)": "high polyreactivity"}
{"sequence": "QVQLVESGGGLVQAGGSLRLSCAASGSTFGWYTMGWYRQAPGKERELVATISYGGGITNYADSVKGRFTMSRDNAKNTVDLQMNSLKPEDTAVYYWAVDNTGRSWPYDYWGQGTQVTVSS", "polyreactivity (PSR sort gate)": "low polyreactivity"}
{"sequence": "QVQLVESGGGLVQAGGSLRLSCAASGSTFGYAMGWNRQAPGKERELVAAINWSGSRTYYADSVKGRFTISRDNAKNTVYLQMNSLKPEDTAVYYCAVLYAGDSPDFDYWGQGSQVTVSS", "polyreactivity (PSR sort gate)": "high polyreactivity"}
{"sequence": "QVQLVESGGGLVQAGGSLRLSCAASGSTFGYNAMGWYRQAPGKEREFVARIRSSGSTTYADSVKGRFTISRDNAKNTVYLQMNSLKPEDTAVYYCAATFRGRYAYYYWGQGTQVTVSS", "polyreactivity (PSR sort gate)": "high polyreactivity"}
{"sequence": "QVQLVESGGGLVQAGGSLRLSCAASGSTFGYNAMGWYRQAPGKERELVAAIRISGGTTYYADSVKGRFTSSRDNAKNTVYLQMNSPKPSDTAVYYCAAGTAGTTGSPKFSGYGYDYWGQGTQVTVSS", "polyreactivity (PSR sort gate)": "low polyreactivity"}
{"sequence": "QVQLVESGGGLVQAGGSLRLSCAASGSTFGYNAMGWYRQAPGKERELVAAITRRGGITYYADSVKGRFTISRDNAKNTVYLQMNSLKPEDTAVYYCAKRLGYPGNSRNYYYWGQGTQVTVSS", "polyreactivity (PSR sort gate)": "high polyreactivity"}
{"sequence": "QVQLVESGGGLVQAGGSLRLSCAASGSTFGYNAMGWYRQAPGKERELVAASSRSGGRTYYADSVKGRFTISRDNAKNTVYLQMNSLKPEDTAVYYCATYYTNKVPARYYWGQGTQVTVSS", "polyreactivity (PSR sort gate)": "high polyreactivity"}
{"sequence": "QVQLVESGGGLVQAGGSLRLSCAASGSTFGYNAMGWYRQAPGKERELVAGISSGGSTNYADSVKGRFTISRDNAKNTVYLQMNSLKPEDTAVYYCNVDERQFSTVYPYRQFDYWGQVTQVTVSS", "polyreactivity (PSR sort gate)": "low polyreactivity"}
{"sequence": "QVQLVESGGGLVQAGGSLRLSCAASGSTFGYNAMGWYRQAPGKERELVAGITGSGTRTYYADSVKGRFTISRDNAKNTVYLQMNSLKPEDTAVYYCAATPTRRYYRQSAYDYWGQGTQVTVSS", "polyreactivity (PSR sort gate)": "high polyreactivity"}
{"sequence": "QVQLVESGGGLVQAGGSLRLSCAASGSTFGYNAMGWYRQAPGTERELVAAISSRGGSTYYADSVKGRFTISRDNAKNTVYLQMNSLKPDDTAVYYCAADPPNGAEYYWGQGTQVTGSS", "polyreactivity (PSR sort gate)": "high polyreactivity"}
{"sequence": "QVQLVESGGGLVQAGGSLRLSCAASGSTFGYYAMGWYRPAPGKERELVAAINVSGGRTYYADSVKGRFTISRDNAKNTVYLQMNSLKPEDTAVYYCAAQRPEYRAGRYNYWGQGTQVTVSS", "polyreactivity (PSR sort gate)": "high polyreactivity"}
{"sequence": "QVQLVESGGGLVQAGGSLRLSCAASGSTFGYYAMGWYRQAPGKERELVAAISWSGGSTYYADSVKGRFTISRDNAKNTVYLQMNSLKPEDTAVYYCNKVRGKTYYGEGDYWGQGTQVTVSS", "polyreactivity (PSR sort gate)": "high polyreactivity"}
{"sequence": "QVQLVESGGGLVQAGGSLRLSCAASGSTFGYYAMGWYRQAPGKERELVAAITSGASTNYADSVKGRFTISRDNAKNTVYLQMNSLKPEDTAVYYCAAANLQYGKDVQGDYWGQGTQVTVSS", "polyreactivity (PSR sort gate)": "low polyreactivity"}
{"sequence": "QVQLVESGGGLVQAGGSLRLSCAASGSTFGYYAMGWYRQAPGKERELVAAITSNDGSTNYADSVKGRFTISRDNAKKTVYLQMNSLKPEDTAVYYCNARSFVAVISSFDYWGQGTQVTVSS", "polyreactivity (PSR sort gate)": "low polyreactivity"}
{"sequence": "QVQLVESGGGLVQAGGSLRLSCAASGSTFGYYAMGWYRQAPGKERELVAAITWGGASTDYADSVKGRFTISRDNAKNTVYLQMNSLKPEDTAVYYCAKDNWDNPRPTSEMDYWGQGTQVTVSS", "polyreactivity (PSR sort gate)": "low polyreactivity"}
{"sequence": "QVQLVESGGGLVQAGGSLRLSCAASGSTFGYYAMGWYRQAPGKERELVAAITYSGGGTYYADSVKGRFTISRDNAKNTVYLQMNSLKPEDTAVYYCAATIPYSLYGYDYWGQGTQVTVSS", "polyreactivity (PSR sort gate)": "low polyreactivity"}
{"sequence": "QVQLVESGGGLVQAGGSLRLSCAASGSTFGYYAMGWYRQAPGKERELVASINWRGDSTYYADSVKGRFTISRDNAKNTVYLQMNSLKPEDTAVYYCNKAYRRRYVQGEYWGQGTQVSVSS", "polyreactivity (PSR sort gate)": "high polyreactivity"}
{"sequence": "QVQLVESGGGLVQAGGSLRLSCAASGSTFGYYAMGWYRQAPGKERELVASITWGGGSTYYADSVKGRFTISRDNAKNTVYLQMNSLKPEDTAVYYCAATILGGTWGYGSYTYYYWGHGTQVTVSS", "polyreactivity (PSR sort gate)": "low polyreactivity"}
{"sequence": "QVQLVESGGGLVQAGGSLRLSCAASGSTFGYYAMGWYRQAPGKERELVATINWSGGSTYYADSEKGRFTISRDNAKNTVYLQMISLKPEDTAVYYCAADPYLQYYWAYDYWGQGTQVTVSS", "polyreactivity (PSR sort gate)": "low polyreactivity"}
{"sequence": "QVQLVESGGGLVQAGGSLRLSCAASGSTFGYYAMGWYRQAPGKERELVATITIGGSTHYADSVKGRFTISRDNAKNTVYLQMNSLKPEDTAVYYCAKRYYTNRHSRAFGFWGQGSQVTVSS", "polyreactivity (PSR sort gate)": "high polyreactivity"}
{"sequence": "QVQLVESGGGLVQAGGSLRLSCAASGSTFGYYAMGWYRQAPGKERELVATITSSGDNTYADSVKGRFTISRDNAKNTVYLQMNSLKPEDTAVYYCNARYRKSSRPVYEPYERYYWGQGTQVTVSS", "polyreactivity (PSR sort gate)": "high polyreactivity"}
{"sequence": "QVQLVESGGGLVQAGGSLRLSCAASGSTFGYYAMGWYRQAPGNEREFVAAITYGDGNTYYADSVKGRFTISRDNAKNTVYLQMNRLKPEDTAVYYCAKYYWAPTGAHGGYGYWGQGTQVTVSS", "polyreactivity (PSR sort gate)": "low polyreactivity"}
{"sequence": "QVQLVESGGGLVQAGGSLRLSCAASGSTFGYYGMGWYRQAPGKERELVAAISTGGRTNYADSVKGRFTISRDNAKNTVYLQMNSLKPEDTAVYYCAADFLSAAYRPSWYRFDYWGQGTQVTVSS", "polyreactivity (PSR sort gate)": "low polyreactivity"}
{"sequence": "QVQLVESGGGLVQAGGSLRLSCAASGSTFGYYGMGWYRQAPGKERELVAAISTGGRTNYADSVKGRFTISRDNAKNTVYLQMNSLKPEDTAVYYCAADFLSPAYRPSWYRFDYWGQGTQVTVSS", "polyreactivity (PSR sort gate)": "low polyreactivity"}
{"sequence": "QVQLVESGGGLVQAGGSLRLSCAASGSTFGYYTMGWYRQAPGKERELVAAITGGGTTYYADSVKGRFTISRDNAKNTVYLQMNSLKPEDYAVYYCAAQARYYWGTTYEYWGQGTQVTVSS", "polyreactivity (PSR sort gate)": "high polyreactivity"}
{"sequence": "QVQLVESGGGLVQAGGSLRLSCAASGSTFGYYTMGWYRQAPGKERELVAAITKSGGGTYYADSVKGRFTISRDNAKNTVYLQMNSLKPEDTAVYYCNALYDYYDPYGSWGQGTQVTVSS", "polyreactivity (PSR sort gate)": "high polyreactivity"}
{"sequence": "QVQLVESGGGLVQAGGSLRLSCAASGSTFHAYAMGWYRQAPGKEREMVAAISWRGGSTYYADSVKGRFTISRDNAKNTVYLQMNSLKPEDTAVYYCAASVQGLFGTSGLEGVDYWGQGTQVTVSS", "polyreactivity (PSR sort gate)": "high polyreactivity"}
{"sequence": "QVQLVESGGGLVQAGGSLRLSCAASGSTFHDKAMGWYRQAPGKERELVAAITKTAGSTYYADSVKGRFTISRDNAKNTVYLQMNSMKPEDTAVYYCNAKTYHSRRKVLRFDYWGQGTQVTVSS", "polyreactivity (PSR sort gate)": "low polyreactivity"}
{"sequence": "QVQLVESGGGLVQAGGSLRLSCAASGSTFHHYAMGWYRQAPGKERELVAAITTSGGRTYYADSVKGRFTISRDNAKNTVYLQMNSLKPEDTAVYYCAADRFFYRGGYYYWGQGTQVTVSS", "polyreactivity (PSR sort gate)": "high polyreactivity"}
{"sequence": "QVQLVESGGGLVQAGGSLRLSCAASGSTFHLYTMGWSRQAPGKERELVAGISRRGGTTYYADSVKGRFTISRDNAKNTVYLQMNSLKPEDTAVYYCAAVYRTYGIGPNNYWGQGTQVTVSS", "polyreactivity (PSR sort gate)": "high polyreactivity"}
{"sequence": "QVQLVESGGGLVQAGGSLRLSCAASGSTFHNYAMGCYRQAPGKERELVAGISVRGGGTYYADSVKGRFTISRDNAKNTVYVQMNSLKPEDTAVYYCNARSWYYVWRKGYRHGDYWGQGTQVTVSS", "polyreactivity (PSR sort gate)": "high polyreactivity"}
